Numbering of substitutions follows the chain as printed.
Assays:
[1] = target: wild type human growth hormone, P01241
wild type human growth hormone, P01241, sequence (P01241 27-217): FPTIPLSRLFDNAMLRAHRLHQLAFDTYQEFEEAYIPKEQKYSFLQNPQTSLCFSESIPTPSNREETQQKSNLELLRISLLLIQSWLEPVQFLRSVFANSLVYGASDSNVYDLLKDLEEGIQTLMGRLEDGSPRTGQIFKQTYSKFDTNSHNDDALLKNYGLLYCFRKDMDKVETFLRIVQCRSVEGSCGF

hGHQ141N, P01241, sequence (P01241 27-217 Q167N): as the sequence (P01241 27-217) above, with Q141N counted along it
hGHQ40N, P01241, sequence (P01241 27-217 Q66N): as the sequence (P01241 27-217) above, with Q40N counted along it

B1: Met-mTGase from S. mobaraensis (protein)
chain: MDSDDRVTPPAEPLDRMPDPYRPSYGRAETVVNNYIRKWQQVYSHRDGRKQQMTEEQREWLSYGCVGVTWVNSGQYPTNRLAFASFDEDRFKNELKNGRPRSGETRAEFEGRVAKESFDEEKGFQRAREVASVMNRALENAHDESAYLDNLKKELANGNDALRNEDARSPFYSALRNTPSFKERNGGNHDPSRMKAVIYSKHFWSGQDRSSSADKRKYGDPDAFRPAPGTGLVDMSRDRNIPRSPTSPGEGFVNFDYGWFGAQTEADADKTVWTHGNHYHAPNGSLGAMHVYESKFRNWSEGYSDFDRGAYVITFIPKSWNTAPDKVKQGWP
Activity towards hGHQ40N (RFU/sec/µg), dansyl-cadaverine fluorescence kinetics (hGHQ40N, P01241): 5.44 RFU/sec/µg
Activity (RFU/sec/µg), dansyl-cadaverine fluorescence kinetics (hGHQ141N, P01241): 1.24 RFU/sec/µg

B2: Mature mTGase from Streptoverticillium ladakanum (protein)
chain: DSDERVTPPAEPLDRMPDPYRPSYGRAETIVNNYIRKWQQVYSHRDGRKQQMTEEQREWLSYGCVGVTWVNSGQYPTNRLAFAFFDEDKYKNELKNGRPRSGETRAEFEGRVAKDSFDEAKGFQRARDVASVMNKALENAHDEGAYLDNLKKELANGNDALRNEDARSPFYSALRNTPSFKDRNGGNHDPSKMKAVIYSKHFWSGQDRSGSSDKRKYGDPEAFRPDRGTGLVDMSRDRNIPRSPTSPGESFVNFDYGWFGAQTEADADKTVWTHGNHYHAPNGSLGAMHVYESKFRNWSDGYSDFDRGAYVVTFVPKSWNTAPDKVKQGWP
Activity towards hGHQ40N (RFU/sec/µg), dansyl-cadaverine fluorescence kinetics (hGHQ40N, P01241): 3.55 RFU/sec/µg
HPLC peak area of product-Q141 (FIG. 3, top) (hGHQ40N, P01241): The first peak (26.5 min, area 1238) is product-Q141
product-Q141 after 30 minutes, FPLC areas normalized to 100 (normalized to 100) (hGHQ40N, P01241): 77
Activity (RFU/sec/µg), dansyl-cadaverine fluorescence kinetics (hGHQ141N, P01241): 0.63 RFU/sec/µg
HPLC peak area of product-Q40 (FIG. 3, bottom) (hGHQ141N, P01241): The first peak (19.2 min, area 127) is product-Q40
product-Q40 after 30 minutes, FPLC areas normalized to 100 (normalized to 100) (hGHQ141N, P01241): 10

B3: mTGase from Streptomyces mobaraensis (protein)
chain: DSDDRVTPPAEPLDRMPDPYRPSYGRAETVVNNYIRKWQQVYSHRDGRKQQMTEEQREWLSYGCVGVTWVNSGQYPTNRLAFASFDEDRFKNELKNGRPRSGETRAEFEGRVAKESFDEEKGFQRAREVASVMNRALENAHDESAYLDNLKKELANGNDALRNEDARSPFYSALRNTPSFKERNGGNHDPSRMKAVIYSKHFWSGQDRSSSADKRKYGDPDAFRPAPGTGLVDMSRDRNIPRSPTSPGEGFVNFDYGWFGAQTEADADKTVWTHGNHYHAPNGSLGAMHVYESKFRNWSEGYSDFDRGAYVITFIPKSWNTAPDKVKQGWP
Activity towards hGHQ40N (RFU/sec/µg), dansyl-cadaverine fluorescence kinetics (hGHQ40N, P01241): 3.35 RFU/sec/µg
HPLC peak area of product-Q141 (FIG. 4, top) (hGHQ40N, P01241): The first peak (26.9 min, area 1283) is product-Q141
product-Q141 after 30 minutes, FPLC areas normalized to 100 (normalized to 100) (hGHQ40N, P01241): 71
Activity (RFU/sec/µg), dansyl-cadaverine fluorescence kinetics (hGHQ141N, P01241): 0.98 RFU/sec/µg
HPLC peak area of product-Q40 (FIG. 4, bottom) (hGHQ141N, P01241): The first peak (19.5 min, area 296) is product-Q40
product-Q40 after 30 minutes, FPLC areas normalized to 100 (normalized to 100) (hGHQ141N, P01241): 19

B4: AlaPro-mTGase from S. mobaraensis (protein)
chain: APDSDDRVTPPAEPLDRMPDPYRPSYGRAETVVNNYIRKWQQVYSHRDGRKQQMTEEQREWLSYGCVGVTWVNSGQYPTNRLAFASFDEDRFKNELKNGRPRSGETRAEFEGRVAKESFDEEKGFQRAREVASVMNRALENAHDESAYLDNLKKELANGNDALRNEDARSPFYSALRNTPSFKERNGGNHDPSRMKAVIYSKHFWSGQDRSSSADKRKYGDPDAFRPAPGTGLVDMSRDRNIPRSPTSPGEGFVNFDYGWFGAQTEADADKTVWTHGNHYHAPNGSLGAMHVYESKFRNWSEGYSDFDRGAYVITFIPKSWNTAPDKVKQGWP
conversion rate by CE (FIG. 2B); reaction time 30 minutes [1]: conversion rate=32%
hGH conv. rate (%) by CE, reference of the separate experiment; reaction time 45 m, enzyme 4.6 µg/ml [1]: 39%
hGH conv. rate (%) by CE; reaction time 30 m, enzyme 9.6 µg/ml [1]: 33%
Activity towards hGHQ40N (RFU/sec/µg), dansyl-cadaverine fluorescence kinetics (hGHQ40N, P01241): 5.05 RFU/sec/µg
Activity (RFU/sec/µg), dansyl-cadaverine fluorescence kinetics (hGHQ141N, P01241): 1.56 RFU/sec/µg

B5: GlyPro-mTGase from S. mobaraensis (protein)
chain: B4 chain with A1G
Activity towards hGHQ40N (RFU/sec/µg), dansyl-cadaverine fluorescence kinetics (hGHQ40N, P01241): 4.28 RFU/sec/µg
Activity (RFU/sec/µg), dansyl-cadaverine fluorescence kinetics (hGHQ141N, P01241): 1.13 RFU/sec/µg

B6: Met-mTGase from S. ladakanum (protein)
chain: MDSDERVTPPAEPLDRMPDPYRPSYGRAETIVNNYIRKWQQVYSHRDGRKQQMTEEQREWLSYGCVGVTWVNSGQYPTNRLAFAFFDEDKYKNELKNGRPRSGETRAEFEGRVAKDSFDEAKGFQRARDVASVMNKALENAHDEGAYLDNLKKELANGNDALRNEDARSPFYSALRNTPSFKDRNGGNHDPSKMKAVIYSKHFWSGQDRSGSSDKRKYGDPEAFRPDRGTGLVDMSRDRNIPRSPTSPGESFVNFDYGWFGAQTEADADKTVWTHGNHYHAPNGSLGAMHVYESKFRNWSDGYSDFDRGAYVVTFVPKSWNTAPDKVKQGWP
Activity towards hGHQ40N (RFU/sec/µg), dansyl-cadaverine fluorescence kinetics (hGHQ40N, P01241): 4.74 RFU/sec/µg
Activity (RFU/sec/µg), dansyl-cadaverine fluorescence kinetics (hGHQ141N, P01241): 0.8 RFU/sec/µg

B7: AlaPro-mTGase from S. ladakanum (protein)
chain: APDSDERVTPPAEPLDRMPDPYRPSYGRAETIVNNYIRKWQQVYSHRDGRKQQMTEEQREWLSYGCVGVTWVNSGQYPTNRLAFAFFDEDKYKNELKNGRPRSGETRAEFEGRVAKDSFDEAKGFQRARDVASVMNKALENAHDEGAYLDNLKKELANGNDALRNEDARSPFYSALRNTPSFKDRNGGNHDPSKMKAVIYSKHFWSGQDRSGSSDKRKYGDPEAFRPDRGTGLVDMSRDRNIPRSPTSPGESFVNFDYGWFGAQTEADADKTVWTHGNHYHAPNGSLGAMHVYESKFRNWSDGYSDFDRGAYVVTFVPKSWNTAPDKVKQGWP
Activity towards hGHQ40N (RFU/sec/µg), dansyl-cadaverine fluorescence kinetics (hGHQ40N, P01241): 6.91 RFU/sec/µg
Activity (RFU/sec/µg), dansyl-cadaverine fluorescence kinetics (hGHQ141N, P01241): 1.02 RFU/sec/µg

B8: GlyPro-mTGase_Y75F from S. ladakanum (protein)
chain: B7 chain with A1G, Y77F
hGH conv. rate (%) by CE; reaction time 60 m, enzyme 12.9 µg/ml [1]: 41%
hGH conversion rate by CE (FIG. 2E); reaction time 75 m [1]: hGH conversion rate=33%

B9: GlyPro-mTGase_Y62H_Y75N from S. ladakanum (protein)
chain: B7 chain with A1G, Y64H, Y77N
hGH conv. rate (%) by CE; reaction time 75 m, enzyme 34.5 µg/ml [1]: 38%

B10: GlyPro-mTGase_Y75N from S. ladakanum (protein)
chain: B7 chain with A1G, Y77N
hGH conv. rate (%) by CE; reaction time 120 m, enzyme 6.5 µg/ml [1]: 44%
hGH conversion rate by CE (FIG. 2F); reaction time 90 m [1]: hGH conversion rate=50%

B11: GlyPro-mTGase from S. ladakanum (protein)
chain: B7 chain with A1G
hGH conv. rate (%) by CE; reaction time 15 m, enzyme 16 µg/ml [1]: 55%
Activity towards hGHQ40N (RFU/sec/µg), dansyl-cadaverine fluorescence kinetics (hGHQ40N, P01241): 4.25 RFU/sec/µg
Activity (RFU/sec/µg), dansyl-cadaverine fluorescence kinetics (hGHQ141N, P01241): 0.48 RFU/sec/µg

B12: GlyPro-mTGase_Y62H_Y75F from S. ladakanum (protein)
chain: B7 chain with A1G, Y64H, Y77F, K329T
RS (relative selectivity against AlaPro-mTGase from S. mobaraensis), separate experiment [1]: 7.6
Selectivity (Q141/Q40) by CE, separate experiment; reaction time 60 m, enzyme 8.8 µg/ml [1]: 76.5
hGH conv. rate (%) by CE, separate experiment; reaction time 60 m, enzyme 8.8 µg/ml [1]: 38.1%
hGH conv. rate (%) by CE; reaction time 120 m, enzyme 7 µg/ml [1]: 49.4%

Source: patent US20100099610
